{"source": "patent US8217152B2", "about": "“Process for the purification of IL-18 binding protein” (Ares Trading S.A., priority 2005, dated 2012)", "origin": "cited, not measured here", "molecules": {"B1": {"name": "IL-18BP: naturally occurring soluble protein that binds IL-18 (protein, UniProt O95998 31-194, looked up)", "Interleukin-18-binding protein": "TPVSQTTTAATASVRSTKDPCPSQPPVFPAAKQCPALEVTWPEVEVPLNGTLSLSCVACSRFPNFSILYWLGNGSFIEHLPGRLWEGSTSRERGSTGTQLCKALVLEQLTPALHSTNFSCVLVDPEQVVQRHVVLAQLWAGLRATLPPTQEALPSSHSSPQQQG"}}, "key": {"induction of IFN-γ": {"tested_on": "induction of IFN-γ", "settings": "mice injected with LPS"}, "IL-18": {"target": "T1, IL-18 (Homo sapiens, UniProt Q14116)", "T1 sequence (Q14116 37-193)": "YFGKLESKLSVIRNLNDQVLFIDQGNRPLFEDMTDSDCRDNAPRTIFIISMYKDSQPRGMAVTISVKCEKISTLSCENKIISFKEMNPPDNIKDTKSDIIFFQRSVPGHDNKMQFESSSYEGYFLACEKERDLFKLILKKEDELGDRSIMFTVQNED", "settings": "Kim et al. 2000; read-out: dissociation constant (Kd) for IL-18"}, "IL-18 induction of IFN-γ": {"tested_on": "IL-18 induction of IFN-γ", "settings": "in vitro"}, "[1]": {"tested_on": "IL-18 activation of NF-κB", "settings": "in vitro"}}, "data": [{"molecule": "B1", "values": [{"measurement": "effect on induction of IFN-γ", "setting": "induction of IFN-γ", "result": "inhibits"}, {"measurement": "Kd", "setting": "IL-18", "result": 0.4, "unit": "nM"}, {"measurement": "effect on IL-18 induction of IFN-γ", "setting": "IL-18 induction of IFN-γ", "result": "abolishes"}, {"measurement": "effect on IL-18 activation of NF-κB", "setting": "[1]", "result": "abolishes"}]}]}
